The values below come from patent US20210171638A1 (HISUN BIORAY PHARMACEUTICAL, published 2021).

For one test, the target named is T1, Human PD-L1 (R&D) (human, UniProt Q9NZQ7 19-239, limits assumed).
T1 construct: Bought recombinant protein coated on ELISA plates; construct not described; also called human PD-L1 protein
The experiment in a line: ELISA, human PD-L1 coated at 5 µg/ml, anti-human Fc-HRP, OD600. As for the experimental part: (§1) In this Example, ELISA assay was used to determine binding of the candidate antibody to human, monkey, and mouse PD-L1.
(§2) After incubation overnight at 4° C., the coating solution was discarded the next day and washed with PBST. 200 μl of BSA blocking solution was added into each well and incubated for 1 h at room temperature. […] Then 100 μl of antibody was added into each well and incubated for 2 h at room temperature. Washing was performed three times with PBST, and anti-human Fc-HRP antibody (Sino Biological) was added and incubated for 1 h at room temperature. Finally, each well was washed four times with PBST, TMB color developing solution (Beijing Tiangen BioTech) was added, and the color was developed at room temperature. After the color development was stopped, the OD value was determined with a microplate reader at 600 nm.
A general note: In an ELISA, binding on a coated surface is turned into a signal by an enzyme label.

Another test concerns the target T2, Mouse PD-L1 (R&D) (mouse, UniProt Q9EP73 19-238, limits assumed).
T2 construct: Bought recombinant protein coated on ELISA plates; construct not described; also called mouse PD-L1 protein
Put plainly: ELISA, mouse PD-L1 coated at 5 µg/ml, anti-human Fc-HRP, OD600. On the procedure: as §1, §2

Test [1] has as its target T3, Recombinant His-tagged PD-L1 (Homo sapiens (Human), UniProt Q9NZQ7 19-238).
T3 construct: also called target antigen
The experiment in a line: BIAcore SPR, antibody captured by anti-human IgG on CM5 chip, His-tagged PD-L1 as analyte, 1:1 fit. As for the experimental part:
In this Example, BIAcore is used to determine antibody affinity. In this experiment, the human antibody capture kit (GE, BR100839) was used to couple the anti-human IgG antibody to the S series CM5 sensor chip (GE, BR100530) through amino before the ligand and analyte binding. Recombinant anti-PD-L1 antibodies, B10, B11, and H12 were diluted with HBS-EP+Buffer as ligands. The recombinant His-tagged PD-L1 was diluted with HBS-EP+Buffer to 8 μg/ml, 4 μg/ml, 1.6 μg/ml, 0.64 μg/ml, 0.256 μg/ml and 0.102 μg/ml as analytes. In Biacore Wizard mode, affinity analysis experiments were performed in a multi-cycle manner. The test of each sample included 3 Start up, 1 zero concentration control, 6 gradient concentration samples and 1 repeated concentration sample. After each cycle, 10 mM Glycine HCl PH2.1 regeneration solution is used to regenerate the chip. Each concentration cycle of the analyte was set as follows: capture time 180s, ligand solution flow rate 10 μl/min, ligand and analyte binding time 180 s, analyte solution flow rate 30 μl/min; dissociation time 2400 s. Raw data was introduced into the analysis software, the zero concentration control was subtracted, and the reference channel was subtracted to eliminate the volume effect. The 1:1 binding mode in the Kinetics analysis method was used to fit the graph and the affinity data of the antigen antibody was calculated by regression analysis using the analysis software based on the binding curve.

Test [2] addresses T4, hPD-L1-Fc protein (R&D) (human, UniProt Q9NZQ7 19-239).
T4 construct: construct not described; not shown: Fc part
The experiment in a line: blocking ELISA: hPD-L1-Fc coated at 1 µg/mL, B11 dilutions mixed 1:1 with hPD-1-Fc-Biotin (0.25 µg/mL), avidin-HRP, OD450.

For test [3], the target named is T4, hPD-L1-Fc protein (R&D). The experiment in a line: blocking ELISA: hPD-L1-Fc coated at 1 µg/mL, B11 dilutions mixed 1:1 with CD80-Biotin (0.25 µg/mL), avidin-HRP, OD450.
A further test concerns the target T5, Monkey PD-L1 (R&D) (monkey).
T5 construct: Bought recombinant protein coated on ELISA plates; construct and monkey species not described; also called monkey PD-L1 protein
Put plainly: ELISA, monkey PD-L1 coated at 5 µg/ml, anti-human Fc-HRP, OD600. As for the experimental part: as §1, §2

T3 sequence (Q9NZQ7 19-238 limits assumed): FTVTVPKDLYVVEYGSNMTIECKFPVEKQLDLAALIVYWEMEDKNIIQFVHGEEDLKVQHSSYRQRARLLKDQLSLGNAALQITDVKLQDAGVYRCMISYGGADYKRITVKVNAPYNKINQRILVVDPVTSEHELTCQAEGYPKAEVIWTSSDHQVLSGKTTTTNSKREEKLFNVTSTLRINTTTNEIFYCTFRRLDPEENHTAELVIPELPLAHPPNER
T2 sequence (Q9EP73 19-238 limits assumed): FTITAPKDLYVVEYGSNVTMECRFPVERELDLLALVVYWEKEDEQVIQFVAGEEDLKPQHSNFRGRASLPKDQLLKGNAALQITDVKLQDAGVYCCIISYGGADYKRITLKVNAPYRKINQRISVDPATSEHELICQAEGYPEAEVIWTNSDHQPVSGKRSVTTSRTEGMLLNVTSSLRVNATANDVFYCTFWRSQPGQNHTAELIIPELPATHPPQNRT
T1 sequence (Q9NZQ7 19-239 limits assumed): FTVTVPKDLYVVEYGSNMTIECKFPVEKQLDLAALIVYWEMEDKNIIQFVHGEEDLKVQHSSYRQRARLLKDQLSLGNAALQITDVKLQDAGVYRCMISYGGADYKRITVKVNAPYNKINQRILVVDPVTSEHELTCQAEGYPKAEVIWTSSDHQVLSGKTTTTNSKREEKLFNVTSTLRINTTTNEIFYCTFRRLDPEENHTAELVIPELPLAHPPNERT
T4 sequence (Q9NZQ7 19-239 limits assumed): as above

B1: Anti-PD-L1 Antibody B11 (antibody, V domains shown)
VH: EVQLVESGGGLVQPGGSLRLSCAASGFTFSETWLHWVRQAPGKGLEWVAWVSPFGGSTYYADSVKGRFTISADTSKNTAYLQMNSLRAEDTAVYYCARRHWPGGFDYWGQGTLVTVSS
VL: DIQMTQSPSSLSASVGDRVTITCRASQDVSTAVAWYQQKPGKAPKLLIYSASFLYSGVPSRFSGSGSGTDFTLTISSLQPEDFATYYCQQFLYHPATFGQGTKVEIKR
notes: also called HZPDL1-B11
A word on the EC50: it is the midpoint of the concentration-response curve. In general, Kd refers to a measure of binding affinity in units of concentration. By koff is commonly meant the first-order rate constant of dissociation. One may read the kon as a measure of how fast the partners come together. On to B1, for which the figures for the EC50 with Human PD-L1 (R&D), with Mouse PD-L1 (R&D) and with Monkey PD-L1 (R&D) were 1.03 pM, 0.407 pM and 0.495 pM, respectively. For the same molecule, the Kd in test [1] was found to be 629 pM. The koff in test [1] was 0.000857 s⁻¹. In addition, in test [1], the kon is 1.36e+06 M⁻¹ s⁻¹. In addition, the “IC50 (read off the curve)” value is approximately 0.3 µg/mL in the test with hPD-L1-Fc protein (R&D) [2] and approximately 0.2 µg/mL with hPD-L1-Fc protein (R&D) [3].

B2: Anti-PD-L1 Antibody H12 (antibody, V domains shown)
VH: EVQLVESGGGLVQPGGSLRLSCAASGFTFSESWLHWVRQAPGKGLEWVAWVTPYGGSTYYADSVKGRFTISADTSKNTAYLQMNSLRAEDTAVYYCARRHWPGGFDYWGQGTLVTVSS
VL: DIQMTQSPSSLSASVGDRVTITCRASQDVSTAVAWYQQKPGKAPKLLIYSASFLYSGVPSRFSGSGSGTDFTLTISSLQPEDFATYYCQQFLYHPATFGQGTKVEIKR
notes: also called HZPDL1-H12
The molecule B2 had an EC50 in the test with Human PD-L1 (R&D) of 1.4 pM. Also, in the test with Mouse PD-L1 (R&D), a half-maximal response (EC50) required 0.483 pM. In test [1], the dissociation constant Kd is 2190 pM, the koff was 0.00261 s⁻¹ and the kon was determined as 1.19e+06 M⁻¹ s⁻¹. The EC50 with Monkey PD-L1 (R&D) is 0.551 pM.

B3: Anti-PD-L1 Antibody B10 (antibody, V domains shown)
VH: not shown
VL: DIQMTQSPSSLSASVGDRVTITCRASQDVSTAVAWYQQKPGKAPKLLIYSASFLYSGVPSRFSGSGSGTDFTLTISSLQPEDFATYYCQQFIFHPATFGQGTKVEIKR
notes: also called HZPDL1-B10
In the test with Human PD-L1 (R&D), B3 gave an EC50 of 1.97 pM. The EC50 with Mouse PD-L1 (R&D) was 0.906 pM. In test [1], the Kd was found to be 1640 pM, the koff stood at 0.00236 s⁻¹ and the kon amounted to 1.44e+06 M⁻¹ s⁻¹. A half-maximal response with Monkey PD-L1 (R&D) (EC50) required 2.65 pM.
